Test results as given in PMC4031048, “Six Homeoproteins and a linc-RNA at the Fast MYH Locus Lock Fast Myofiber Terminal Phenotype”.

T1: Six1 (Mus musculus, UniProt Q62231 1-284)
T1 sequence: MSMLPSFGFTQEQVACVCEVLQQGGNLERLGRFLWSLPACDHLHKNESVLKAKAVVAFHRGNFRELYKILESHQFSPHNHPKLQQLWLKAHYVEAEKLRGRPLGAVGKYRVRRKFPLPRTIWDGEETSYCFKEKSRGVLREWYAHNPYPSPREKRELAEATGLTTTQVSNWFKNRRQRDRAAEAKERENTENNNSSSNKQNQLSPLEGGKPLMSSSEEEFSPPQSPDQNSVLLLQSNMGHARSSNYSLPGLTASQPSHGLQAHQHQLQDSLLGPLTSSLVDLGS

B1: Enh4 (dsDNA)
DNA 1: GGGGTAAGAAATCTGACGACAGG
DNA 2: CCTGTCGTCAGATTTCTTACCCC
B2: Enh6 (dsDNA)
DNA 1: CGTCAAGGAAACCTTATTCCATC
DNA 2: GATGGAATAAGGTTTCCTTGACG
B3: Enh1 (dsDNA)
DNA 1: CTCTTGGGTAACTGGAGCCCCTC
DNA 2: GAGGGGCTCCAGTTACCCAAGAG
B4: Enh2 (dsDNA)
DNA 1: TCATAAGGAAATCTAAGTCAACC
DNA 2: GGTTGACTTAGATTTCCTTATGA
B5: Enh3 (dsDNA)
DNA 1: TGTAAGAGAAACTGAAATAAAAT
DNA 2: ATTTTATTTCAGTTTCTCTTACA

Target: T1, Six1
Assay: competition EMSA; 10x and 100x vs labeled Myogenin MEF3; EMSA as previously described (ref 38); buffer, salt, pH and temperature not given
Conditions: protein: ivt; blunt

Binder	binding result
B1	binds
B2	binds
B3	binds
B4	binds
B5	binds
